Values quoted from earlier work in patent EP1140148B1, “SHELF-STABLE SOLUTION FORMULATION OF GLUCAGON-LIKE PEPTIDE-1” (ELI LILLY AND COMPANY, priority 1998, dated 2005).

Settings: stored at 4° C; as early as; Mojsov 1992

Substance: GLP-1(7-37): Glucagon-like peptide-1 (7-37), insulinotropic peptide hormone
- by-products found after sample preparation: eleven
